Data as given in PMC5394417, “Investigating the molecular mechanism of positive and negative allosteric modulators in the calcium-sensing receptor dimer” (Scientific Reports, 2017).

B1: rat calcium-sensing receptor, wild type (receptor, UniProt P48442 20-1079, looked up)
chain: YGPDQRAQKKGDIILGGLFPIHFGVAAKDQDLKSRPESVECIRYNFRGFRWLQAMIFAIEEINSSPSLLPNMTLGYRIFDTCNTVSKALEATLSFVAQNKIDSLNLDEFCNCSEHIPSTIAVVGATGSGVSTAVANLLGLFYIPQVSYASSSRLLSNKNQYKSFLRTIPNDEHQATAMADIIEYFRWNWVGTIAADDDYGRPGIEKFREEAEERDICIDFSELISQYSDEEEIQQVVEVIQNSTAKVIVVFSSGPDLEPLIKEIVRRNITGRIWLASEAWASSSLIAMPEYFHVVGGTIGFGLKAGQIPGFREFLQKVHPRKSVHNGFAKEFWEETFNCHLQEGAKGPLPVDTFVRSHEEGGNRLLNSSTAFRPLCTGDENINSVETPYMDYEHLRISYNVYLAVYSIAHALQDIYTCLPGRGLFTNGSCADIKKVEAWQVLKHLRHLNFTNNMGEQVTFDECGDLVGNYSIINWHLSPEDGSIVFKEVGYYNVYAKKGERLFINEEKILWSGFSREVPFSNCSRDCQAGTRKGIIEGEPTCCFECVECPDGEYSGETDASACDKCPDDFWSNENHTSCIAKEIEFLAWTEPFGIALTLFAVLGIFLTAFVLGVFIKFRNTPIVKATNRELSYLLLFSLLCCFSSSLFFIGEPQDWTCRLRQPAFGISFVLCISCILVKTNRVLLVFEAKIPTSFHRKWWGLNLQFLLVFLCTFMQILICIIWLYTAPPSSYRNHELEDEIIFITCHEGSLMALGSLIGYTCLLAAICFFFAFKSRKLPENFNEAKFITFSMLIFFIVWISFIPAYASTYGKFVSAVEVIAILAASFGLLACIFFNKVYIILFKPSRNTIEEVRSSTAAHAFKVAARATLRRPNISRKRSSSLGGSTGSIPSSSISSKSNSEDRFPQPERQKQQQPLSLTQQEQQQQPLTLHPQQQQQPQQPRCKQKVIFGSGTVTFSLSFDEPQKNAMAHRNSMRQNSLEAQRSNDTLGRHQALLPLQCADADSEMTIQETGLQGPMVGDHQPEMESSDEMSPALVMSTSRSFVISGGGSSVTENVLHS
notes: calcium-sensing receptor (CaSR), rat; Each copy carries one tag only, HA or myc; the two differently tagged copies were co-expressed; The mGluR5 signal peptide stands upstream of the tag; also called CaSR; WT HA-CaSR; source: HEK293T, transiently transfected (Lipofectamine 2000), on cells; not shown: HA (one copy), N-terminal, kept; myc (the other copy), N-terminal, kept
B2: rat GPRC6A, wild type (receptor, UniProt Q70VB1 21-928, looked up)
chain: CHTPDDFVAITSPGHIMIGGLFAIHEKMLSSDDHPRQPQIQKCVGFEISVFLQTLAMIHSIEMINNSSLLSGVKLGYEIYDTCTEVTAAMAATLRFLSKFNCSRETVIFQCDYSSYVPRVKAIIGAGYSEISMAVSRMLNLQLMPQVSYESTAEILSDKIRFPSFLRTVPSDFYQTKAMAHLIRQSGWNWVGAITTDDDYGRLALNTFAIQAAENNVCIAFKEVLPAFLSDNTIEVRINQTLEKIIAEAQVNVIVVFLRKFHVFNLFNKAIERKISKIWIASDNWSTAAKIITIPNVKKLGKVVGFTFRRGNMSSFHSFLQTLHMYPSDNNKPLHEFAMLFSACKHIKDGDLSQCISNYSQATWTYDTTKTIETHLFKRNDFLWHYTEPGLIHSIQLAVLALGHAIRDLCQDRDCQKPNAFQPWELLAVLKNVTFTDGKNSFHFDAHGDLNTGYEVVLWKETNGLMTVTKMAEYDLQHDVFITTNQETKHEFRKLKQILSKCSKECIPGQMKKATGSQHSCCYECVNCPENHYSNETDMDHCLVCNNETHWAPVRSTMCFEKEVEYLDWDDSLALLLIALSLLGIAFVLAVGIIFTRNLKTPVVKSSGGLVVCYVMLACHALNFASTGFFIGEPQDFTCKTRQTLFGVSFTLCVSCILTKSLKILLAFSFDPTLKTFLKCLYRPVPIVLTCTGIQVVICTLWLVLAAPTVEENTSLPRVIILECEEGSALAFGTMLGYIAVLAFICFVFAFKGRKLPENYNEAKFLTFGMLIYFIAWITFIPVYATTFGKYLPAVEIIVILISNYGILCCTFFPKCYIILCKQKTNTKSVFLQMVYNYSAHSVDSLALSHVSLDSASHSTATTNPRPGNKTAACQNYKHLPVQVLAHTGMEKTMHASKTLHQKRSSSI
notes: GPRC6A, rat; previously described myc-tagged rat GPRC6A-pEGFPN1 construct with the mGluR5 signal peptide upstream of the myc tag; Each copy carries one tag only, HA or myc; the HA-GPRC6A construct is not described; also called WT myc-GPRC6A; WT HA-GPRC6A; source: HEK293T, transiently transfected (Lipofectamine 2000), on cells; not shown: HA (one copy), N-terminal, kept; myc (the other copy), …

Target: the molecule itself
Assay: FRET or BRET; TR-FRET dimerization assay on transiently transfected HEK293T cells co-expressing an HA-tagged and a myc-tagged construct (1:1); Tb3+-conjugated anti-HA antibody (donor, 1 nM) and d2-conjugated anti-myc antibody (acceptor, 50 nM), 24 h at 4 °C; HBSS, 20 mM HEPES, 0.5 mM CaCl2, 0.5 mM MgCl2, 5 mg/mL bovine serum albumin, pH 7.4; FRET ratio (665 nm/615 nm) normalized to pEGFPN1

| Protein | fold increase in FRET signal |
| --- | --- |
| B1 | 11.8 fold |
| B2 | 9.8 fold |
